{"source": "paper PMC4814116", "about": "“Design of Novel Relaxase Substrates Based on Rolling Circle Replicases for Bioconjugation to DNA Nanostructures”"}
{"molecular_target": "T1, TrwCR (N-terminal relaxase domain of TrwC) (UniProt Q47673 1-293)", "T1 sequence": "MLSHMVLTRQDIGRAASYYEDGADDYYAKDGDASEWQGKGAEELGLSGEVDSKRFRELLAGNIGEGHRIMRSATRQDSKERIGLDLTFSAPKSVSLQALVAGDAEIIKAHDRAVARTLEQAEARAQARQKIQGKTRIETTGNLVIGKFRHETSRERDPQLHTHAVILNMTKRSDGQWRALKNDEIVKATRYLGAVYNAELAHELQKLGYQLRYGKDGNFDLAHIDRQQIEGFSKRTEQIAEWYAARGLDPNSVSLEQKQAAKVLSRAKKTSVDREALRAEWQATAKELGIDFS", "test": "gel filtration; EDTA; Covalent complex: 15 uM oligo, 37 C 1 h, 5 mM MgCl2, 15 uM EDTA; TrwCR 10 mM Tris pH 7.6, 375 mM NaCl; MobAR 25 mM Tris pH 8.0, 225 mM NaCl; TraIR 10 mM Tris pH 7.6, 225 mM NaCl. EMSA: 50 nM oligo, 10 mM Tris pH 7.6, 100 mM NaCl, 1 mM EDTA, RT 30 min. Gel filtration: 100 mM Tris pH 7.6, 200 mM NaCl, EDTA", "details": "protein: recombinant; hairpin"}
{"binder": "AACCGGCTAGGTGCGTATTGTCTATAGCCCACGCACCTAGCCGGTT (structured_DNA)", "note": "[R388 H(23+23)]", "binding result": "binds"}
{"binder": "AACCGGCTAGGTGCGTATTGTCTATAGCCCAGATCGCACCTAGCCGGTT (structured_DNA)", "note": "[R388 H(23+26)]", "binding result": "binds"}
{"binder": "CCGGTGCGTATTGTCTATAGCCCGCGCACCGG (structured_DNA)", "note": "[R388 H(16+16)]", "binding result": "binds"}
{"molecular_target": "T1, TrwCR (N-terminal relaxase domain of …)", "test": "gel filtration; EDTA; slight shift; Covalent complex: 15 uM oligo, 37 C 1 h, 5 mM MgCl2, 15 uM EDTA; TrwCR 10 mM Tris pH 7.6, 375 mM NaCl; MobAR 25 mM Tris pH 8.0, 225 mM NaCl; TraIR 10 mM Tris pH 7.6, 225 mM NaCl. EMSA: 50 nM oligo, 10 mM Tris pH 7.6, 100 mM NaCl, 1 mM EDTA, RT 30 min. Gel filtration: 100 mM Tris pH 7.6, 200 mM NaCl, EDTA", "details": "protein: recombinant; hairpin"}
{"binder": "ATTGTCTATAGCCCAGATCGCACCGAAAGGTGCG (structured_DNA)", "note": "[R388 R(7+27)]", "binding result": "binds"}
{"molecular_target": "T1, TrwCR (N-terminal relaxase domain of …)", "test": "SDS-PAGE covalent complex; 5 mM Mg2+; Covalent complex: 15 uM oligo, 37 C 1 h, 5 mM MgCl2, 15 uM EDTA; TrwCR 10 mM Tris pH 7.6, 375 mM NaCl; MobAR 25 mM Tris pH 8.0, 225 mM NaCl; TraIR 10 mM Tris pH 7.6, 225 mM NaCl. EMSA: 50 nM oligo, 10 mM Tris pH 7.6, 100 mM NaCl, 1 mM EDTA, RT 30 min. Gel filtration: 100 mM Tris pH 7.6, 200 mM NaCl, EDTA", "details": "protein: recombinant", "units": {"binding signal": "% covalent complex"}}
{"binder": "GGTGCGTATTGTCTATAGCCCAGATTTA (ssDNA)", "note": "[R388 W(14+14)]", "binding signal": "19.8 ± 1.9"}
{"binder": "TATTGTCTATAGCCCACGCACC (ssDNA)", "note": "[R388 R(8+14)]", "binding signal": "30.2 ± 4.9"}
{"molecular_target": "T1, TrwCR (N-terminal relaxase domain of …)", "test": "SDS-PAGE covalent complex; 5 mM Mg2+; Covalent complex: 15 uM oligo, 37 C 1 h, 5 mM MgCl2, 15 uM EDTA; TrwCR 10 mM Tris pH 7.6, 375 mM NaCl; MobAR 25 mM Tris pH 8.0, 225 mM NaCl; TraIR 10 mM Tris pH 7.6, 225 mM NaCl. EMSA: 50 nM oligo, 10 mM Tris pH 7.6, 100 mM NaCl, 1 mM EDTA, RT 30 min. Gel filtration: 100 mM Tris pH 7.6, 200 mM NaCl, EDTA", "details": "protein: recombinant; hairpin", "units": {"binding signal": "% covalent complex"}}
{"binder": "GGTGCGTATTGTCTATAGCCCGCGCACC (structured_DNA)", "note": "[R388 H(14+14)]", "binding signal": "26.8 ± 4.7"}
{"binder": "GGTGCGTATTGTCTATAGCCGCGCACC (structured_DNA)", "note": "[R388 H(14+13)]", "binding signal": "23.3 ± 2.9"}
{"binder": "GGTGCGTATTGTCTATCGCACC (structured_DNA)", "note": "[R388 H(14+8)]", "binding signal": "22.4 ± 5.7"}
{"binder": "GGTGCGTATTGTCTATAGCGCGCACC (structured_DNA)", "note": "[R388 H(14+12)]", "binding signal": "25.5 ± 3.1"}
{"binder": "GGTGCGTATTGTCTATAGCCCAGCGCACC (structured_DNA)", "note": "[R388 H(14+15)]", "binding signal": "19.6 ± 1.4"}
{"binder": "GCGCACCGAAAGGTGCGTATTGTCTATAGCCCAGATTTAAGGA (structured_DNA)", "note": "[R388 W(25+18)]", "binding signal": "24.7 ± 2.1"}
{"binder": "GGTGCGTATTGTCTATAGCGCACC (structured_DNA)", "note": "[R388 H(14+10)]", "binding signal": "23 ± 4.7"}
{"binder": "GGTGCGTATTGTCTATAGCCCAGATCGCACC (structured_DNA)", "note": "[R388 H(14+17)]", "binding signal": "22.3 ± 6.1"}
{"binder": "TATTGTCTATAGCCCACGCACCGAAAGGTGCG (structured_DNA)", "note": "[R388 R(8+24)]", "binding signal": "45.3 ± 6.6"}
{"binder": "TATTGTCTATAGCCCAGATCGCACCGAAAGGTGCG (structured_DNA)", "note": "[R388 R(8+27)]", "binding signal": "44.7 ± 1"}
{"molecular_target": "T2, MobAR (minMobA) (plasmid RSF1010, UniProt P07112 1-186)", "T2 sequence": "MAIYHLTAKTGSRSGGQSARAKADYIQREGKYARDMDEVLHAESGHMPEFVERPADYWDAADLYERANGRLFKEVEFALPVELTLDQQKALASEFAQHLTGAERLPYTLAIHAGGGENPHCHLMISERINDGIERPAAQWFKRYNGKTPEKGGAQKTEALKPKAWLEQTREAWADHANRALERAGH", "test": "SDS-PAGE covalent complex; 5 mM Mg2+; Covalent complex: 15 uM oligo, 37 C 1 h, 5 mM MgCl2, 15 uM EDTA; TrwCR 10 mM Tris pH 7.6, 375 mM NaCl; MobAR 25 mM Tris pH 8.0, 225 mM NaCl; TraIR 10 mM Tris pH 7.6, 225 mM NaCl. EMSA: 50 nM oligo, 10 mM Tris pH 7.6, 100 mM NaCl, 1 mM EDTA, RT 30 min. Gel filtration: 100 mM Tris pH 7.6, 200 mM NaCl, EDTA", "details": "protein: recombinant; hairpin", "units": {"binding signal": "% covalent complex"}}
{"binder": "CAGTTTCTCGAAGAGAAACCGGTAAGTGCGCCCTCCC (structured_DNA)", "note": "[RSF1010 WQ(30+7)]", "binding signal": "43.9 ± 1.4"}
{"binder": "CCGGTTGAAAACCGGTAAGTGCGCCCTCCCC (structured_DNA)", "note": "[RSF1010 WQ(23+7)]", "binding signal": "41.4 ± 1.3"}
{"binder": "GAGAAACCGGTAAGTGCGCCCTCCCGATCAGTTTCTC (structured_DNA)", "note": "[RSF1010 HQ(18+19)]", "binding signal": "9 ± 3.1"}
{"binder": "GAGAAACCGGTAAGTGCGCCCTCCCCAGTTTCTC (structured_DNA)", "note": "[RSF1010 HQ(18+16)]", "binding signal": "13.1 ± 4.2"}
{"molecular_target": "T3, TraIR (N-terminal domain of TraI) (plasmid RP4, UniProt Q00191 1-270)", "T3 sequence": "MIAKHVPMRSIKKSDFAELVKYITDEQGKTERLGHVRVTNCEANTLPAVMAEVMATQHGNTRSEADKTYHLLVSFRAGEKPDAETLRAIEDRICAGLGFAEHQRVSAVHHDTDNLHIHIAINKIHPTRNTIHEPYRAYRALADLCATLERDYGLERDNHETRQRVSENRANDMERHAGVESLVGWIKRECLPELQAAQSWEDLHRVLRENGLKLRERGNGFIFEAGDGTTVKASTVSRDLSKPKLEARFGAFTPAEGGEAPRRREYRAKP", "test": "SDS-PAGE covalent complex; 5 mM Mg2+; Covalent complex: 15 uM oligo, 37 C 1 h, 5 mM MgCl2, 15 uM EDTA; TrwCR 10 mM Tris pH 7.6, 375 mM NaCl; MobAR 25 mM Tris pH 8.0, 225 mM NaCl; TraIR 10 mM Tris pH 7.6, 225 mM NaCl. EMSA: 50 nM oligo, 10 mM Tris pH 7.6, 100 mM NaCl, 1 mM EDTA, RT 30 min. Gel filtration: 100 mM Tris pH 7.6, 200 mM NaCl, EDTA", "details": "protein: recombinant", "units": {"binding signal": "% covalent complex"}}
{"binder": "ACTTCACCTATCCTGCCCGGC (ssDNA)", "note": "[RP4 WP(15+6)]", "binding signal": "24.4 ± 5.7"}
{"molecular_target": "T3, TraIR (N-terminal domain of TraI)", "test": "SDS-PAGE covalent complex; 5 mM Mg2+; Covalent complex: 15 uM oligo, 37 C 1 h, 5 mM MgCl2, 15 uM EDTA; TrwCR 10 mM Tris pH 7.6, 375 mM NaCl; MobAR 25 mM Tris pH 8.0, 225 mM NaCl; TraIR 10 mM Tris pH 7.6, 225 mM NaCl. EMSA: 50 nM oligo, 10 mM Tris pH 7.6, 100 mM NaCl, 1 mM EDTA, RT 30 min. Gel filtration: 100 mM Tris pH 7.6, 200 mM NaCl, EDTA", "details": "protein: recombinant; hairpin", "units": {"binding signal": "% covalent complex"}}
{"binder": "CTATCCTGCCCGGCTGGTGAAGGAAACTTCAC (structured_DNA)", "note": "[RP4 RP(8+24)]", "binding signal": "23.7 ± 2.7"}
{"binder": "GTGAAGGAAACTTCACCTATCCTGCCCGGCTG (structured_DNA)", "note": "[RP4 WP(24+8)]", "binding signal": "21.3 ± 0.9"}
{"molecular_target": "T1, TrwCR (N-terminal relaxase domain of …)", "test": "SDS-PAGE covalent complex; 5 mM Mg2+; text says product not detected; Covalent complex: 15 uM oligo, 37 C 1 h, 5 mM MgCl2, 15 uM EDTA; TrwCR 10 mM Tris pH 7.6, 375 mM NaCl; MobAR 25 mM Tris pH 8.0, 225 mM NaCl; TraIR 10 mM Tris pH 7.6, 225 mM NaCl. EMSA: 50 nM oligo, 10 mM Tris pH 7.6, 100 mM NaCl, 1 mM EDTA, RT 30 min. Gel filtration: 100 mM Tris pH 7.6, 200 mM NaCl, EDTA", "details": "protein: recombinant; hairpin", "units": {"binding signal": "% covalent complex"}}
{"binder": "GTCTATAGCCCAGATCGCACCGAAAGGTGCG (structured_DNA)", "note": "[R388 R(4+27)]", "binding signal": "9.9 ± 3.9"}
{"binder": "ATAGCCCAGATCGCACCGAAAGGTGCG (structured_DNA)", "note": "[R388 R(0+27)]", "binding signal": "5.8 ± 1.9"}
{"binder": "TATAGCCCAGATCGCACCGAAAGGTGCG (structured_DNA)", "note": "[R388 R(1+27)]", "binding signal": "9.9 ± 3.2"}
